Experimental data: patent US20240376198A1 (INHIBRX, published 2024)
Substitutions are numbered along the chain they refer to. Values belong to the binder of their own block, whether it stands above or below them.

Key:
[1] = target: T1, human NKp46 (human, UniProt O76036 22-304); test: flow cytometry, HEK293F cells transfected with human NKp46
T1 construct: also called CD335; NCR1
Experimental: (§1) Binding of NKp46-binding polypeptides formatted as VHH-Fc fusion proteins was assessed by flow cytometry. An IgG1-Fc lacking a hinge, or a homodimeric Fc (FIG. 1I-1J) was used (the Fc lacking a hinge is annotated as Fc*). HEK293F cells were transiently transfected with a plasmid encoding full-length human NKp46, cynomolgus NKp46, or mouse NKp46, followed by an IRES and GFP. Transfected cells expressing NKp46 and GFP were used to measure binding of the polypeptides. The transfected cells were plated in a 96-well plate at 30,000 cells per well in FACS buffer (PBS, 1% BSA, 0.1% NaN₃, pH 7.4). Untransfected HEK293F cells were used as a NKp46-negative control and plated at 30,000 cells per well in a separate plate. Test polypeptides were then diluted to two times the final concentration of 1000 nM, and a 3-, 4-, or 5-fold, serial dilution was made. A final column was left with only FACS buffer as a secondary-only control. Test article dilutions were added to an equal volume of cells, and assay plates were incubated for 30 minutes at 4° C. After washing twice with 150 μL. of FACS buffer per well, the cells were resuspended in FACS buffer with α-hFc-647 secondary diluted 1:1000-2000. Assay plates were then left to incubate at 4° C. for 20-30 minutes. After one additional wash with 150 μL of FACS buffer, bound antibody was detected by flow cytometry. Flow cytometric detection was performed on an Intellicyt iQue Plus or Accuri iQue. NKp46 transfected cells were gated on as GFP positive, and polypeptide binding was measured as median fluorescence at 647 nm.

[2] = target: T2, mouse NKp46 (mouse, UniProt Q8C567 17-325); test: flow cytometry, HEK293F cells transfected with mouse NKp46
T2 construct: whole, on cells
T2 sequence (looked up): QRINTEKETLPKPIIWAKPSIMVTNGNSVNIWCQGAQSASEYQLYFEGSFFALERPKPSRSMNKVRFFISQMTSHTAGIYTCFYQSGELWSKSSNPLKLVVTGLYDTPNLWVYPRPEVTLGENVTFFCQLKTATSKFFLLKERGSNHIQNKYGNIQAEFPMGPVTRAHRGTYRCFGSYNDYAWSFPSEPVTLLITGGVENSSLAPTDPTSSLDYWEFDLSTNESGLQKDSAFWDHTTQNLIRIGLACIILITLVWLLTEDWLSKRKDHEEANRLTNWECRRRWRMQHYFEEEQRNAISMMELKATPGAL
Experimental: as §1

[3] = target: T3, cynomolgus NKp46 (cynomolgus monkey, UniProt Q95JB9 22-306); test: flow cytometry, HEK293F cells transfected with cyno NKp46
T3 construct: also called cyno NKp46; cynomolgus monkey NKp46
T3 sequence (Q95JB9 22-306 limits assumed): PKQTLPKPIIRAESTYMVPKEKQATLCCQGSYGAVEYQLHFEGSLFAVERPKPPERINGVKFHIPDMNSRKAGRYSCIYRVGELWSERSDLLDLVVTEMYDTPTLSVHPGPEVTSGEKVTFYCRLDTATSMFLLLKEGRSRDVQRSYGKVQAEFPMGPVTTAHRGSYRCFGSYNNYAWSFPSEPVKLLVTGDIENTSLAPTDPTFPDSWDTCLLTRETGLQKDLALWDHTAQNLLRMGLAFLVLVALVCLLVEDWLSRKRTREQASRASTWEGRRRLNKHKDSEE
Experimental: as §1

T1 sequence (O76036 22-304 Q82K): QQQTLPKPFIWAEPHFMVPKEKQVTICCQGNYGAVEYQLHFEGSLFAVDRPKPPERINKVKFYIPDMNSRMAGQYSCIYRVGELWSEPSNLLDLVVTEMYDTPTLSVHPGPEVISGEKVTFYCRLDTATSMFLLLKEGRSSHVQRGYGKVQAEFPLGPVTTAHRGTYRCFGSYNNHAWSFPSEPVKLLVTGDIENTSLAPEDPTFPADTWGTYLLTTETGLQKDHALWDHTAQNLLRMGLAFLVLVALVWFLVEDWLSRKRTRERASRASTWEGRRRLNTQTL

- Bmax (MFI) [1]: 790000 MFI
- Kd [1]: 0.139 nM
- Bmax (MFI) [2]: 1.17e+06 MFI
- Kd [2]: 0.468 nM
- Bmax (MFI) [3]: 67600 MFI
- Kd [3]: 0.691 nM
B1: NKp46-hz5D7v1-Fc* (Fc fusion)
chain: EVQLVESGGGEVQPGGSLRLSCAASGRTFASAAMGWFRQAPGKGREFVAAISRSDDTYYAESVKGRFTISRDNAKNTLYLQMSSLRAEDTAVYYCAAVVPTYGNNIYVHSAAYNYWGQGTLVTVKPGGGGPSVFLFPPKPKDTLMISRTPEVTCVVVDVSHEDPEVKFNWYVDGVEVHNAKTKPREEQYNSTYRVVSVLTVLHQDWLNGKEYKCKVSNKALPAPIEKTISKAKGQPREPQVYTLPPSRDELTKNQVSLTCLVKGFYPSDIAVEWESNGQPENNYKTTPPVLDSDGSFFLYSKLTVDKSRWQQGNVFSCSVMHEALHNHYTQKSLSLSPG
notes: VHH-Fc fusion with an IgG1 Fc lacking a hinge (Fc*)

- Bmax (MFI) [1]: 938000 MFI
- Kd [1]: 0.762 nM
- Bmax (MFI) [2]: 1.21e+06 MFI
- Kd [2]: 0.729 nM
- Bmax (MFI) [3]: 51500 MFI
- Kd [3]: 0.902 nM
B2: NKp46-hz5D7v2-Fc* (Fc fusion)
chain: B1 chain with G44E
notes: VHH-Fc fusion with an IgG1 Fc lacking a hinge (Fc*); also called NKp46-bz5D7v2-Fc*

- Kd [1]: 0.189 nM
- Kd [2]: 0.887 nM
- Kd [3]: 0.446 nM
B3: NKp46-hz5D7v4-Fc* (Fc fusion)
chain: B1 chain with G44E, E61D, L78V
notes: as for B1

- Bmax (MFI) [1]: 866000 MFI
- Kd [1]: 0.23 nM
- Bmax (MFI) [2]: 1.17e+06 MFI
- Kd [2]: 0.613 nM
- Bmax (MFI) [3]: 64600 MFI
- Kd [3]: 0.703 nM
B4: NKp46-hz5D7v7-Fc* (Fc fusion)
chain: B1 chain with G44E, D55G, E61D, L78V
notes: VHH-Fc fusion with an IgG1 Fc lacking a hinge (Fc*); also called NKp46-bz5D7v7-Fc*

- Bmax (MFI) [1]: 1.04e+06 MFI
- Kd [1]: 0.172 nM
- Bmax (MFI) [2]: 1.07e+06 MFI
- Kd [2]: 0.487 nM
- Bmax (MFI) [3]: 58600 MFI
- Kd [3]: 0.538 nM
B5: NKp46-5D7-Fc* (Fc fusion)
chain: QVTLRESGASLSLTCAASGRTFASAAMGWFRQAPGEEREFVAAISRSDDTYYADSVKGRFTISRDNAKNTVYLQMNSLKSEDTAVYYCAAVVPTYGNNIYVHSAAYNYWGQGTQVTVKPGGGGGPSVFLFPPKPKDTLMISRTPEVTCVVVDVSHEDPEVKFNWYVDGVEVHNAKTKPREEQYNSTYRVVSVLTVLHQDWLNGKEYKCKVSNKALPAPIEKTISKAKGQPREPQVYTLPPSRDELTKNQVSLTCLVKGFYPSDIAVEWESNGQPENNYKTTPPVLDSDGSFFLYSKLTVDKSRWQQGNVFSCSVMHEALHNHYTQKSLSLSPG
notes: VHH-Fc fusion with an IgG1 Fc lacking a hinge (Fc*); also called 5D7 VHH

- Bmax (MFI) [1]: 930000 MFI
- Kd [1]: 0.203 nM
- Bmax (MFI) [2]: 1.12e+06 MFI
- Kd [2]: 0.696 nM
- Bmax (MFI) [3]: 53500 MFI
- Kd [3]: 0.526 nM
B6: NKp46-hz5D7v8-Fc* (Fc fusion)
chain: EVQLVESGGGEVQPGGSLRLSCAASGRTFASAAMGWFRQAPGKEREFVAAISRSVGDTYYADSVKGRFTISRDNAKNTVYLQMSSLRAEDTAVYYCAAVVPTYGNNIYVHSAAYNYWGQGTLVTVKPGGGGPSVFLFPPKPKDTLMISRTPEVTCVVVDVSHEDPEVKFNWYVDGVEVHNAKTKPREEQYNSTYRVVSVLTVLHQDWLNGKEYKCKVSNKALPAPIEKTISKAKGQPREPQVYTLPPSRDELTKNQVSLTCLVKGFYPSDIAVEWESNGQPENNYKTTPPVLDSDGSFFLYSKLTVDKSRWQQGNVFSCSVMHEALHNHYTQKSLSLSPG
notes: VHH-Fc fusion with an IgG1 Fc lacking a hinge (Fc*); also called NKp46-bz5D7v8-Fc*

- Bmax (MFI) [1]: 1.05e+06 MFI
- Kd [1]: 0.392 nM
- Bmax (MFI) [2]: 1.22e+06 MFI
- Kd [2]: 0.941 nM
- Bmax (MFI) [3]: 61900 MFI
- Kd [3]: 0.655 nM
B7: NKp46-hz5D7v9-Fc* (Fc fusion)
chain: B6 chain with G56D
notes: as for B1

- Kd [1]: 0.269 nM
- Kd [2]: 0.82 nM
- Kd [3]: 1.06 nM
B8: NKp46-hz5D7v10-Fc* (Fc fusion)
chain: EVQLVESGGSLRLSCAASGRTFASAAMGWFRQAPGKEREFVAAISRSDDTYYADSVKGRFTISRDNAKNTVYLQMSSLRAEDTAVYYCAAVVPTYGNNIYVHSAAYNYWGQGTLVTVKPGGGGPSVFLFPPKPKDTLMISRTPEVTCVVVDVSHEDPEVKFNWYVDGVEVHNAKTKPREEQYNSTYRVVSVLTVLHQDWLNGKEYKCKVSNKALPAPIEKTISKAKGQPREPQVYTLPPSRDELTKNQVSLTCLVKGFYPSDIAVEWESNGQPENNYKTTPPVLDSDGSFFLYSKLTVDKSRWQQGNVFSCSVMHEALHNHYTQKSLSLSPG
notes: as for B1
